# Target: human plasma fibronectin (human)
# Sequence (P02751 other isoform, or with tags, fused parts or gaps): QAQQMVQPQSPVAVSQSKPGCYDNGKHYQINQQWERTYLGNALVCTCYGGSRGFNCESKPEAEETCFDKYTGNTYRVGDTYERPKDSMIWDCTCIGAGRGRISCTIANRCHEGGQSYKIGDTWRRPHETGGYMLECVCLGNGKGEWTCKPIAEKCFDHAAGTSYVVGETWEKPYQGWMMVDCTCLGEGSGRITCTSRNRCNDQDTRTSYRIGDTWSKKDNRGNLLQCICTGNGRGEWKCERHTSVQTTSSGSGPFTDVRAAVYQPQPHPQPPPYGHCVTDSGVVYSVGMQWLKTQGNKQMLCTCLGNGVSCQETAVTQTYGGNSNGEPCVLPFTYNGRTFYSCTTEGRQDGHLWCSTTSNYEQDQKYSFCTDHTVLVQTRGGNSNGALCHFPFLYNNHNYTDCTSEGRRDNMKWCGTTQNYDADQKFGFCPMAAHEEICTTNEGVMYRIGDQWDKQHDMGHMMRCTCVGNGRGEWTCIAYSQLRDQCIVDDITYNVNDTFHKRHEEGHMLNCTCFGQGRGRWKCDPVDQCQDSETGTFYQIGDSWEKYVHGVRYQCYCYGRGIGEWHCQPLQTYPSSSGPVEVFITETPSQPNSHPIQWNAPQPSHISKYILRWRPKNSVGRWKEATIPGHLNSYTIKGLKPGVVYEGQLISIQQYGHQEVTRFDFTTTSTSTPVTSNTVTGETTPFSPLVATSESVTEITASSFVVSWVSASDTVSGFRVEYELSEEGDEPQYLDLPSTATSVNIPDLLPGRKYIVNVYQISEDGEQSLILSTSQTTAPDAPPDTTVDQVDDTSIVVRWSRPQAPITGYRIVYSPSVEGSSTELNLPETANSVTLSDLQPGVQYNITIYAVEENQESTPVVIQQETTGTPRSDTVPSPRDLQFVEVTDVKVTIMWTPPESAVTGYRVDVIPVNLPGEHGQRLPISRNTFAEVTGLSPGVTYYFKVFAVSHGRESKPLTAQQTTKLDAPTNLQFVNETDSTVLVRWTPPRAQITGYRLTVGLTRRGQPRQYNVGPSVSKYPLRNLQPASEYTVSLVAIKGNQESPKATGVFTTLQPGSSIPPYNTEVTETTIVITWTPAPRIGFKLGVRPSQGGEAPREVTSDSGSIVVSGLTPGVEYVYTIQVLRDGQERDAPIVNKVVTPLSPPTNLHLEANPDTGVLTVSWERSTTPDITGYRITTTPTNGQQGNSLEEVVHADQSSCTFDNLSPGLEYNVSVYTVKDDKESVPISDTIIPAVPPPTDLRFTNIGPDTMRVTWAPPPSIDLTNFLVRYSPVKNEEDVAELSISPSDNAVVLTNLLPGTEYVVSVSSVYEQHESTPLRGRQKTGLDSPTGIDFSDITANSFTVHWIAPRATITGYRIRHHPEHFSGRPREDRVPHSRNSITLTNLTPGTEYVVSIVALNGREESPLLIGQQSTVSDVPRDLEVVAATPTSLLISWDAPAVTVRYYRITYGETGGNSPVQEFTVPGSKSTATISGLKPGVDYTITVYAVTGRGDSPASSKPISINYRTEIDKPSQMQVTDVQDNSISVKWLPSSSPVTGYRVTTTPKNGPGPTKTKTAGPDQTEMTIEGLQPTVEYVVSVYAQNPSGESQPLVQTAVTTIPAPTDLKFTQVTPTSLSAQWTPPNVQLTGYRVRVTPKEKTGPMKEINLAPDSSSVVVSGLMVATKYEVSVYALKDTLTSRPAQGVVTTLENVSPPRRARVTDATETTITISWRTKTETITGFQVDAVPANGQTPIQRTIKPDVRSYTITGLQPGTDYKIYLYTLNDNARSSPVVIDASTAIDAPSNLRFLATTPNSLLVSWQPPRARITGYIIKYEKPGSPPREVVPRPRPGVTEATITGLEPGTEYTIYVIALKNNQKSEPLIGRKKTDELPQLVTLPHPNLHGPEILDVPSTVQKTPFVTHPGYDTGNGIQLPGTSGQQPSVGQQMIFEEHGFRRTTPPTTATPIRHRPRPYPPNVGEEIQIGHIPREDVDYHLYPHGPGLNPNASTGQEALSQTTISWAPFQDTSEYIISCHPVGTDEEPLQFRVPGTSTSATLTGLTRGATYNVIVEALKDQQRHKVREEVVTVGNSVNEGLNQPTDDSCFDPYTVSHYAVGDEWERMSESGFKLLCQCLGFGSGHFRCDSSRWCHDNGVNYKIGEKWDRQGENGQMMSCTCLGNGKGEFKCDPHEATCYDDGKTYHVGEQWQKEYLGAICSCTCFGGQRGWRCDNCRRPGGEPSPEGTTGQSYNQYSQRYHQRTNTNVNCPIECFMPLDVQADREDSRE
binder,measurement,value
recombinant embigin extracellular domain GST-fusion protein (EMB-GST) (domain or fragment) DGSAPDSPFTSPPLREEIMANNFSLESHNISLTEHSSMPVEKNITLERPSNVNLTCQFTTSGDLNAVNVTWKKDGEQLENNYLVSATGSTLYTQYRFTIINSKQMGSYSCFFREEKEQRGTFNFKVPELHGKNKPLISYVGDSTVLTCKCQNCFPLNWTWYSSNGSVKVPVGVQMNKYVINGTYANETKLKITQLLEEDGESYWCRALFQLGESEEHIELVVLSYLVP,Kd,< 50 nM
